Source: paper PMC2172085

Molecular target: YFP-hDcp2 (human), Q8IU60
Test: FRET or BRET
Conditions: remark: other sources report otherwise

- apparent FRET efficiency (one experiment, foci in the bleached region): 17%
- average apparent FRET efficiency: 15%
B1: CFP-hDcp1a, Q9NPI6 1-582 (natural protein)
chain: MEALSRAGQEMSLAALKQHDPYITSIADLTGQVALYTFCPKANQWEKTDIEGTLFVYRRSASPYHGFTIVNRLNMHNLVEPVNKDLEFQLHEPFLLYRNASLSIYSIWFYDKNDCHRIAKLMADVVEEETRRSQQAARDKQSPSQANGCSDHRPIDILEMLSRAKDEYERNQMGDSNISSPGLQPSTQLSNLGSTETLEEMPSGSQDKSAPSGHKHLTVEELFGTSLPKEQPAVVGLDSEEMERLPGDASQKEPNSFLPFPFEQLGGAPQSETLGVPSAAHHSVQPEITTPVLITPASITQSNEKHAPTYTIPLSPVLSPTLPAEAPTAQVPPSLPRNSTMMQAVKTTPRQRSPLLNQPVPELSHASLIANQSPFRAPLNVTNTAGTSLPSVDLLQKLRLTPQHDQIQTQPLGKGAMVASFSPAAGQLATPESFIEPPSKTAAARVAASASLSNMVLAPLQSMQQNQDPEVFVQPKVLSSAIPVAGAPLVTATTTAVSSVLLAPSVFQQTVTRSSDLERKASSPSPLTIGTPESQRKPSIILSKSQLQDTLIHLIKNDSSFLSTLHEVYLQVLTKNKDNHNL
